Results taken from patent US20080207488A1, “Method for Detecting Peptides Comprising a Cross-B Structure” (priority 2005, published 2008).

Tests used:
[1] = Thioflavin T fluorescence; type: physicochemical
Method: Fluorescence of ThT-protein/peptide adducts was measured as follows. […] Fluorescence was measured at 485 nm upon excitation at 435 nm. Background signals from buffer, buffer with ThT and protein/peptide solution without ThT were subtracted from corresponding measurements with protein solution incubated with ThT. […] Fluorescence was measured in triplicate on a Hitachi F-4500 fluorescence spectrophotometer (Ltd., Tokyo, Japan).
(§1) Formulated protein therapeutics were obtained from the local hospital pharmacy and were used as supplied by the manufacturers. […] Lyophilized therapeutics were dissolved according to the manufacturers recommendations. […] Other protein therapeutics were only kept at 4° C., and assayed for the presence of cross-β structure conformation at shown time points. Enhancement in fluorescence of ThT and Congo red was measured with all formulated protein therapeutics. For this purpose, proteins were diluted to the indicated concentrations. […] Zinc-insulin was diluted tenfold in the activation assay, GH was diluted to a final concentration of 500 μg ml^−1. Activation of factor XII and prekallikrein by the therapeutics was tested in the chromogenic factor XII assay (see above). […] After coating, plates were blocked with Blocking Reagent (Roche Diagnostics, Almere, The Netherlands).
To prepare structurally altered ovalbumin (OVA) with amyloid cross-β structure conformation, purified OVA (Sigma, A-7641, lot 071k7094) was heated to 85° C. One mg ml^−1 OVA in 67 mM NaPi buffer pH 7.0, 100 mM NaCl, was heated for two cycles in PCR cups in a PTC-200 thermal cycler (MJ Research, Inc., Waltham, Mass., USA). In each cycle, OVA was heated from 30 to 85° C. at a rate of 5° C./min. Native OVA (nOVA) and heat-denatured OVA (dOVA) were tested in the ThT fluorescence assay and in the Plg-activation assay. In the fluorescence assay and in the Plg-activation assay, 25 and 100 μg ml^−1 nOVA and dOVA were tested, respectively. TEM images of nOVA and dOVA were taken to check for the presence of large aggregates. […] MSA (#126674, Calbiochem) was dissolved in 8 M urea, 100 mM Tris-HCl pH 8.2, at 10 mg ml^−1 final concentration. Dithiothreitol (DTT) was added to a final concentration of 10 mM. Air was replaced by N2 and the solution was incubated for 2 h at room temperature. Then, the solution was transferred to ice and iodoacetamide was added from a 1 M stock to a final concentration of 20 mM. […] Alkyl-MSA was dialyzed against H2O before use. […] In the ThT-fluorescence assay 25 μg ml^−1 nMSA and alkyl-MSA were tested, and in the Plg-activation assay 100 μg ml^−1 was tested. The presence of aggregates or fibrils was analyzed using TEM. […]
Protein therapeutics were obtained from the local hospital pharmacy and analyzed within the expiry limits as stated by the manufacturers.

[2] = target: T1, tPA (Homo sapiens, UniProt P00750); assay: Plasminogen-activation assay (tPA-mediated Plg to Pls, S-2251); type: biochemical
T1 construct: purchased Boehringer-Ingelheim (Actilyse, Alteplase)
T1 sequence (P00750 36-562): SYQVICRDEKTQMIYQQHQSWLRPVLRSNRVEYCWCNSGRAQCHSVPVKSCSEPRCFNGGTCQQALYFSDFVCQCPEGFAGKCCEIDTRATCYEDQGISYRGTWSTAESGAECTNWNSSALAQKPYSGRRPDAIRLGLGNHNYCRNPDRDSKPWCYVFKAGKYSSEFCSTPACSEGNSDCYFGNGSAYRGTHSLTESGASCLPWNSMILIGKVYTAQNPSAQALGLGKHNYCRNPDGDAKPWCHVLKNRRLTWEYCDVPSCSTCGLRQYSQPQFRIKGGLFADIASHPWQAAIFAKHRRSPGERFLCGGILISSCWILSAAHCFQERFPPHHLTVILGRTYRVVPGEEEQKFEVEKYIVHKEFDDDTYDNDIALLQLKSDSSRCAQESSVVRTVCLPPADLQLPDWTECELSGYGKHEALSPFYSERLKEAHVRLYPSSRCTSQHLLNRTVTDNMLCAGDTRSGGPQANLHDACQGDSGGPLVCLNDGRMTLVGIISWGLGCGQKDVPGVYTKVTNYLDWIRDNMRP
Method: Plasmin (Pls) activity was assayed as described^7. Peptides and proteins that were tested for their stimulatory ability were regularly used at 100 μg ml^−1. […] Chromogenic substrate S-2251 (Chromogenix, Instrumentation Laboratory SpA, Milano, Italy) was used to measure Pls activity. Conversion of zymogen factor XII (#233490, Calbiochem, EMD Biosciences, Inc., San Diego, Calif.) to proteolytically active factor XII (factor XIIa) was assayed by measurement of the conversion of chromogenic substrate Chromozym-PK (Roche Diagnostics, Almere, The Netherlands) by kallikrein. Chromozym-PK was used at a concentration of 0.3 mM. Factor XII, human plasma prekallikrein (#529583, Calbiochem) and human plasma cofactor high-molecular weight kininogen (#422686, Calbiochem) were used at concentrations of 1 μg ml^−1. […] Assays were performed using microtiter plates (Costar, Cambridge, Mass., USA). Peptides and proteins were tested for their ability to activate factor XII. 150 μg ml^−1 kaolin, an established activator of factor XII was used as positive control and solvent (H2O) as negative control. The conversion of Chromozym-PK was recorded kinetically at 37° C. for at least 60 minutes. Assays were done in duplicate. […] Alternatively, chromogenic substrate S-2222 (Chromogenix) was used to follow the activity of factor XII itself. With S-2222, activation of factor XII in plasma was measured, using 60% v/v plasma, diluted with substrate and H2O with or without potential cofactor. Furthermore, auto-activation of factor XII was measured by incubating 53 μg ml^−1 purified factor XII in 50 mM Tris-HCl buffer pH 7.5 with 1 mM EDTA and 0.001% v/v Triton-X100, with S-2222 and H2O with or without potential cofactor.
as §1
Purification of β2-glycoprotein I (β2GPI) was performed according to established methods^11,12. Recombinant human β2GPI was made using insect cells and purified as described^11. Plasma derived β2GPI as used in a factor XII ELISA, the chromogenic Plg-activation assay and in the anti-phospholipid syndrome antibody ELISA (see below), was purified from fresh human plasma as described^12.
To prepare structurally altered ovalbumin (OVA) with amyloid cross-β structure conformation, purified OVA (Sigma, A-7641, lot 071k7094) was heated to 85° C. One mg ml^−1 OVA in 67 mM NaPi buffer pH 7.0, 100 mM NaCl, was heated for two cycles in PCR cups in a PTC-200 thermal cycler (MJ Research, Inc., Waltham, Mass., USA). In each cycle, OVA was heated from 30 to 85° C. at a rate of 5° C./min. Native OVA (nOVA) and heat-denatured OVA (dOVA) were tested in the ThT fluorescence assay and in the Plg-activation assay. In the fluorescence assay and in the Plg-activation assay, 25 and 100 μg ml^−1 nOVA and dOVA were tested, respectively. TEM images of nOVA and dOVA were taken to check for the presence of large aggregates. […] MSA (#126674, Calbiochem) was dissolved in 8 M urea, 100 mM Tris-HCl pH 8.2, at 10 mg ml^−1 final concentration.

[3] = target: T2, human fibronectin finger 4,5 (Fn F4,5) fragment (Homo sapiens, UniProt P02751); assay: ELISA, binding of fibronectin F4,5 to coated (mis)folded proteins; settings: coated protein; for affinity of fibronectin F4,5 (detection anti-FLAG HRP): FIG. 7D-H
T2 construct: human fibronectin finger 4,5 (Fn F4,5) fragment; made in house; host or cells: HEK293E cells, transient transfection, protein purified from the medium
T2 sequence (P02751 182-276 limits assumed): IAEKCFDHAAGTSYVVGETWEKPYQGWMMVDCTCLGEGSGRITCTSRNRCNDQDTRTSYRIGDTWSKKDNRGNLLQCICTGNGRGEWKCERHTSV
Method: The plates were blocked using Blocking reagent (Roche 1112589). A dilution series of the protein of interest was applied to the coated proteins and wells were subsequently washed using TBS-T (50 mM Tris pH 7.3, 150 mM NaCl and 0.1% Tween20). Bound protein is detected by the FLAG-tag using 1:3000 anti-FLAG-HRP (Sigma A-8592) in PBS-T, or by 1:1000 Ni-NTA-HRP (Qiagen 34530) in PBS-T. The HRP reaction Is performed using the TMB substrate (Biosource 4501103 or Tebu Bio 101TMB100-500), stopped using 10% H2SO4 and absorbance was measured at 450 nm.

Row | Pls activity (tPA activation) ([2]; after storage at 65° C.) | binding of fibronectin F4-5 (detection Ni-NTA-HRP) ([3]; FIG. 7A) | affinity of fibronectin F4,5 (detection anti-FLAG HRP) [3] | activation of tPA and Plg by component alone ([2]; FIG. 2G, without contacting) | Substance | ThT fluorescence enhancement ([1]; after storage at 65° C.) | Fluorescence (a.u. +/− SD) ThT ([1]; marketed biopharmaceutical within expiry limits, five μL tested) | enhancement of ThT fluorescence ([1]; therapeutics stored at 4° C.) | tPA activation by protein therapeutics ([2]; stored at 4° C., GH 500 μg ml^−1, zinc-insulin diluted tenfold) | ThT fluorescence after incubation with kaolin ([1]; compared to buffer)
1 | induced Pls activity |  |  |  | Abciximab: abciximab, an inhibitor of blood platelet aggregation (ReoPro, Centocor) | enhanced ThT fluorescence | 8 +/− 8 a.u. | do not have ThT fluorescence enhancing or tPA activating properties | do not have ThT fluorescence enhancing or tPA activating properties | 
2 |  | high affinity binding | High affinities |  | albumin-AGE: advanced glycation end-product modified bovine serum albumin |  |  |  |  | 
3 |  |  | high affinity | do not activate tPA and Plg | lysozyme: chicken egg-white lysozyme |  |  |  |  | only in a small increase in ThT fluorescence
